Results on 41 molecules are retold here after article PMC11417369, “DNA sequence and chromatin differentiate sequence-specific transcription factor binding in the human malaria parasite Plasmodium falciparum”.

The data set addresses T1, AP2-G D1 (Plasmodium falciparum, UniProt Q8I5I9 2123-2245).
T1 sequence: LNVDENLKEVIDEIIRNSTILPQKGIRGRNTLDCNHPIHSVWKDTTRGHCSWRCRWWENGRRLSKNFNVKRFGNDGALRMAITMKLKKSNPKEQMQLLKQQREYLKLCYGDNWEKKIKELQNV
In words: gcPBM; about 25 ug protein; PBS, 1% milk, 0.2 mg/ml BSA, salmon testes DNA, 0.03% Triton X-100. The conditions noted are these: tags: N-terminal GST (pGEX-4T-1), kept; label: surface-attached array probe.

B1: XGTACX_site1387 (dsDNA)
DNA 1: AAAAAAAATTATATATGTACTTATTAATCCTTTTAT
DNA 2: ATAAAAGGATTAATAAGTACATATATAATTTTTTTT
For the molecule B1, the binding signal was 12 ln median PBM intensity, better of two orientations.

B2: XGTACX_site3520 (dsDNA)
DNA 1: ATATATATATATATATGTACTTATTTATCGTATTAT
DNA 2: ATAATACGATAAATAAGTACATATATATATATATAT
Take B2: the binding signal was 11.9 ln median PBM intensity, better of two orientations.

B3: XGTACX_site8893 (dsDNA)
DNA 1: ATATATATATATATATGTACATATATATTGTTGATC
DNA 2: GATCAACAATATATATGTACATATATATATATATAT
Take B3: the binding signal was 11.8 ln median PBM intensity, better of two orientations.

B4: XGTACX_site8481 (dsDNA)
DNA 1: TCAATTTTTTAATGTTGTACTTTGTAAAAAAAAATA
DNA 2: TATTTTTTTTTACAAAGTACAACATTAAAAAATTGA
Take B4: the binding signal was 11.7 ln median PBM intensity, better of two orientations.

B5: XGTACX_site8545 (dsDNA)
DNA 1: TTACACATGTTTAACTGTACACATAATAGCAATATT
DNA 2: AATATTGCTATTATGTGTACAGTTAAACATGTGTAA
Consider B5, for which the binding signal is 12.2 ln median PBM intensity, better of two orientations.

B6: XGTACX_site7234 (dsDNA)
DNA 1: ATTTCCTTTTTCTGTTGTACTCATAAAATAATATGT
DNA 2: ACATATTATTTTATGAGTACAACAGAAAAAGGAAAT
As to B6, the binding signal is 12.2 ln median PBM intensity, better of two orientations.

B7: XGTACX_site7911 (dsDNA)
DNA 1: TAGCATGATTTGCCTTGTACACAACCGTTTTAATAA
DNA 2: TTATTAAAACGGTTGTGTACAAGGCAAATCATGCTA
With B7, the binding signal was 11.7 ln median PBM intensity, better of two orientations.

B8: XGTACX_site6588 (dsDNA)
DNA 1: AAAAATTGAATGATGTGTACTTAAAAGAATATAGAA
DNA 2: TTCTATATTCTTTTAAGTACACATCATTCAATTTTT
Consider B8, for which the binding signal is 11.8 ln median PBM intensity, better of two orientations.

B9: XGTACX_site3785 (dsDNA)
DNA 1: ATATACATATGTGTGTGTACTTATATCACATTTTTG
DNA 2: CAAAAATGTGATATAAGTACACACACATATGTATAT
With B9, the binding signal was 12 ln median PBM intensity, better of two orientations.

B10: XGTACX_site5322 (dsDNA)
DNA 1: TATATATATATATGTAGTACTTTACAAAATAATTCG
DNA 2: CGAATTATTTTGTAAAGTACTACATATATATATATA
Take B10: the binding signal is 12.1 ln median PBM intensity, better of two orientations.

B11: XGTACX_site3287 (dsDNA)
DNA 1: TTTTACAATATTTTGTGTACTTATATTATGAGCTTA
DNA 2: TAAGCTCATAATATAAGTACACAAAATATTGTAAAA
For B11, the binding signal was 12.2 ln median PBM intensity, better of two orientations.

B12: XGTACX_site4379 (dsDNA)
DNA 1: AATTAAATAAATGTATGTACATAATAAATATGTATT
DNA 2: AATACATATTTATTATGTACATACATTTATTTAATT
On to B12, for which the binding signal was 11.7 ln median PBM intensity, better of two orientations.

B13: XGTACX_site2113 (dsDNA)
DNA 1: AAGATAAAATAATAAAGTACACATATAAATTGAAAA
DNA 2: TTTTCAATTTATATGTGTACTTTATTATTTTATCTT
As for B13, the binding signal is 11.8 ln median PBM intensity, better of two orientations.

B14: XGTACX_site3365 (dsDNA)
DNA 1: TATATGGGATATATGTGTACATATAAAATATGTATC
DNA 2: GATACATATTTTATATGTACACATATATCCCATATA
In the case of B14, the binding signal is 11.8 ln median PBM intensity, better of two orientations.

B15: XGTACX_site1598 (dsDNA)
DNA 1: CTAATAAAAAAAAAAAGTACATATGACAATATAAAG
DNA 2: CTTTATATTGTCATATGTACTTTTTTTTTTTATTAG
For the molecule B15, the binding signal was 12.1 ln median PBM intensity, better of two orientations.

B16: XGTACX_site4032 (dsDNA)
DNA 1: TTCATTTTTTATTATAGTACACATAATATTTGCAGA
DNA 2: TCTGCAAATATTATGTGTACTATAATAAAAAATGAA
In the case of B16, the binding signal is 12.3 ln median PBM intensity, better of two orientations.

B17: XGTACX_site7594 (dsDNA)
DNA 1: AGACGTAATAATTGTTGTACATAAAAAAATAAGAAA
DNA 2: TTTCTTATTTTTTTATGTACAACAATTATTACGTCT
Turning to B17, the binding signal was 12.1 ln median PBM intensity, better of two orientations.

B18: XGTACX_site8080 (dsDNA)
DNA 1: AAGCTTAAAAATGGGGGTACGTCATAGGGATTCAAC
DNA 2: GTTGAATCCCTATGACGTACCCCCATTTTTAAGCTT
On to B18, for which the binding signal is 11.7 ln median PBM intensity, better of two orientations.

B19: XGTACX_site8319 (dsDNA)
DNA 1: AAAAAAATATTAATGTGTACATAATAATAACATATA
DNA 2: TATATGTTATTATTATGTACACATTAATATTTTTTT
With B19, the binding signal is 11.9 ln median PBM intensity, better of two orientations.

B20: XGTACX_site2117 (dsDNA)
DNA 1: TATAATATATGTATATGTACTTATGTTGAGAAACAT
DNA 2: ATGTTTCTCAACATAAGTACATATACATATATTATA
For the molecule B20, the binding signal is 11.7 ln median PBM intensity, better of two orientations.

B21: XGTACX_site17 (dsDNA)
DNA 1: TTTTACAAATATTACTGTACACATTTTCATATAATT
DNA 2: AATTATATGAAAATGTGTACAGTAATATTTGTAAAA
For the molecule B21, the binding signal is 12.2 ln median PBM intensity, better of two orientations.

B22: XGTACX_site977 (dsDNA)
DNA 1: TTCAAATTGTTTATATGTACTTATAAAAATTGTCTG
DNA 2: CAGACAATTTTTATAAGTACATATAAACAATTTGAA
B22: the binding signal was 11.8 ln median PBM intensity, better of two orientations.

B23: XGTACX_site5884 (dsDNA)
DNA 1: TCAAGTATTAAAATGGGTACATAAATATGTGTATAT
DNA 2: ATATACACATATTTATGTACCCATTTTAATACTTGA
B23: the binding signal is 12.1 ln median PBM intensity, better of two orientations.

B24: XGTACX_site2641 (dsDNA)
DNA 1: TATATATATTTAAGGTGTACATAAATAACAAAATAT
DNA 2: ATATTTTGTTATTTATGTACACCTTAAATATATATA
As for B24, the binding signal was 12.3 ln median PBM intensity, better of two orientations.

B25: XGTACX_site3663 (dsDNA)
DNA 1: TTTTTTTCTTAAAGATGTACTTTTTTAAAATAATCT
DNA 2: AGATTATTTTAAAAAAGTACATCTTTAAGAAAAAAA
Regarding B25, the binding signal was 12 ln median PBM intensity, better of two orientations.

B26: XGTACX_site8830 (dsDNA)
DNA 1: AAATGCTAAAAATAGAGTACAGATAACGAAAAGTGT
DNA 2: ACACTTTTCGTTATCTGTACTCTATTTTTAGCATTT
Take B26: the binding signal is 12.1 ln median PBM intensity, better of two orientations.

B27: XGTACX_site894 (dsDNA)
DNA 1: AATAATGTTATAAATTGTACGTGTATTATTCATTAC
DNA 2: GTAATGAATAATACACGTACAATTTATAACATTATT
For B27, the binding signal is 11.8 ln median PBM intensity, better of two orientations.

B28: XGTACX_site4165 (dsDNA)
DNA 1: TTGTTTTTTTTTGGCTGTACGTTCATAAATTTTTTT
DNA 2: AAAAAAATTTATGAACGTACAGCCAAAAAAAAACAA
Turning to B28, the binding signal was 11.9 ln median PBM intensity, better of two orientations.

B29: XGTACX_site1392 (dsDNA)
DNA 1: ATATGTAAAATATGGGGTACGAAGGTAGGTAGGTAA
DNA 2: TTACCTACCTACCTTCGTACCCCATATTTTACATAT
As to B29, the binding signal was 11.7 ln median PBM intensity, better of two orientations.

B30: XGTACX_site366 (dsDNA)
DNA 1: TAATATTTCATTAGGTGTACACTACATAGTAGTAGA
DNA 2: TCTACTACTATGTAGTGTACACCTAATGAAATATTA
Consider B30, for which the binding signal is 12.2 ln median PBM intensity, better of two orientations.

B31: XGTACX_site1944 (dsDNA)
DNA 1: TTCAAAAATATATAATGTACACAAATATAAAAGAAT
DNA 2: ATTCTTTTATATTTGTGTACATTATATATTTTTGAA
B31: the binding signal is 12 ln median PBM intensity, better of two orientations.

B32: XGTACX_site4551 (dsDNA)
DNA 1: ATATATATATATATTTGTACTTACATTTTTATTTAT
DNA 2: ATAAATAAAAATGTAAGTACAAATATATATATATAT
As for B32, the binding signal is 11.6 ln median PBM intensity, better of two orientations.

B33: XGTACX_site7939 (dsDNA)
DNA 1: GGATTTTTCGAATCATGTACATATTTAATTAAAAAA
DNA 2: TTTTTTAATTAAATATGTACATGATTCGAAAAATCC
With B33, the binding signal was 11.8 ln median PBM intensity, better of two orientations.

B34: XGTACX_site8448 (dsDNA)
DNA 1: AGGTTTCATTTAGCATGTACATATTATAAAAATTGT
DNA 2: ACAATTTTTATAATATGTACATGCTAAATGAAACCT
In the case of B34, the binding signal is 11.6 ln median PBM intensity, better of two orientations.

B35: XGTACX_site2864 (dsDNA)
DNA 1: CCTATATAATTATAATGTACTTGTAAAAAATATAAC
DNA 2: GTTATATTTTTTACAAGTACATTATAATTATATAGG
As to B35, the binding signal was 11.8 ln median PBM intensity, better of two orientations.

B36: XGTACX_site1573 (dsDNA)
DNA 1: TCCATTGTCACCTTTTGTACTTAAATTTTTTCCTCC
DNA 2: GGAGGAAAAAATTTAAGTACAAAAGGTGACAATGGA
Turning to B36, the binding signal is 11.9 ln median PBM intensity, better of two orientations.

B37: XGTACX_site6785 (dsDNA)
DNA 1: ATATATGGAAAGAGTAGTACTATTATAGGGGTGTTA
DNA 2: TAACACCCCTATAATAGTACTACTCTTTCCATATAT
On to B37, for which the binding signal was 11.7 ln median PBM intensity, better of two orientations.

B38: XGTACX_site1288 (dsDNA)
DNA 1: TAAAGAGTCATGTGGTGTACCTGCTTCACCACATAT
DNA 2: ATATGTGGTGAAGCAGGTACACCACATGACTCTTTA
Consider B38, for which the binding signal is 11.9 ln median PBM intensity, better of two orientations.

B39: XGTACX_site1814 (dsDNA)
DNA 1: TTAAGAATATTTTCATGTACTCATTTTTTTTGTTAT
DNA 2: ATAACAAAAAAAATGAGTACATGAAAATATTCTTAA
Regarding B39, the binding signal is 12 ln median PBM intensity, better of two orientations.

B40: XGTACX_site5109 (dsDNA)
DNA 1: TTTTTTTTTTTTTTTGGTACACATTTTGGTTAATGG
DNA 2: CCATTAACCAAAATGTGTACCAAAAAAAAAAAAAAA
Turning to B40, the binding signal is 12 ln median PBM intensity, better of two orientations.

B41: XGTACX_site8237 (dsDNA)
DNA 1: TATAAAAATTAATATTGTACGTTTTATGAAAATAAA
DNA 2: TTTATTTTCATAAAACGTACAATATTAATTTTTATA
For the molecule B41, the binding signal was 11.9 ln median PBM intensity, better of two orientations.
